Experimental data published in patent publication US20140234213A1 (FOX CHASE CANCER CENTER, published 2014).

Target: T1, human Mullerian inhibiting substance Type II receptor (MISIIR) (human, UniProt Q16671 18-573)
T1 construct: whole, on cells; also called MIS type II receptor; AMHR2
T1 sequence (looked up): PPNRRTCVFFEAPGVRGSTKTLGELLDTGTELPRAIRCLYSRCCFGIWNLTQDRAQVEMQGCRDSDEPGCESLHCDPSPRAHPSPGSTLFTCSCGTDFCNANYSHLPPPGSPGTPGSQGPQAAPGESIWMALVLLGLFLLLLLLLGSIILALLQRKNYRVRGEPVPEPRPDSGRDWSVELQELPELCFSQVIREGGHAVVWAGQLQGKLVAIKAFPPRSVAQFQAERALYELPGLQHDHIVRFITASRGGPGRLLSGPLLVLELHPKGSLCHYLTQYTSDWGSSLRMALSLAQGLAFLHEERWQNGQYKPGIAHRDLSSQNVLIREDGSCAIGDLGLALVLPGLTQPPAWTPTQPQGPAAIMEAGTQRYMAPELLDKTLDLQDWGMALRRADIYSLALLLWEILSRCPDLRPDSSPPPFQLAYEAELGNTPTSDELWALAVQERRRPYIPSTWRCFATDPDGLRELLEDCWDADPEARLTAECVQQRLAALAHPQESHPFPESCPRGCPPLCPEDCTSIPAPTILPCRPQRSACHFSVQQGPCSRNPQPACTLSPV
Experiment: inferred by the filing from the reporter gene assay (block of MIS-induced signaling); no direct binding assay
Method: FIG. 3 provides a schematic of a reporter gene assay to measure MISIIR signaling. The Tlx-2 (T-cell leukemia, homeobox 2) gene is a downstream target of BMP and MIS signaling (Tang et al. (1998) Development 125:1877-1887). Genes encoding mouse TLX2-luciferase and human MISIIR were stably transfected into P19 mouse neuroblastoma cells that normally lack MISIIR.
The ability of the new hybrid scFv molecules to block MIS binding to MISIIR was determined using a reporter gene assay in which signaling through MISIIR on the surface of […] cells triggers luminescence in the cells (FIG. 3). MIS was added to the cells in the presence or absence of the different scFv molecules and the resulting luminescence was measured (FIG. 4).

- binding result: binds
B1: RAD-1-0003 (E3 1DQH3) scFv (scFv)
scFv: MAQVQLQQSGPGLVKPSQTLSLTCAISGDSVSSKSATWNWIRQSPSRGLEWLGRTYYRSKWYNDYAESVKSRITIKPDTTKNHFSLQLKSVTPEDTAVYYCASPPGGKLLISLSEERISAHHVPMDYWGQGTLVTVSSSASGAELGGGGSGGGGSGGGGSTSQAVLTQPSSASGTPGQRVTISCSGSSSNIGAGYDVHWYQQLPGTAPKLLIYGNSNRPSGVPDRFSGSKSGTSASLAITGLQAEDEADYYCQSYDSSLSAHNYVFGTGTKVTLLG
notes: Hybrid scFv on the E3 framework with the MIS loop in the heavy chain CDR3, in a different orientation than RAD-1-0001
